Laboratory results taken from IntAct's records for PubMed 29276004.

B1: Rho-related BTB domain-containing protein 2 (Homo sapiens), Q9BYZ6-2 (parent)
chain: MQAWRKGPDGPQKTSSDSMSRLMDSDMDYERPNVETIKCVVVGDNAVGKTRLICARACNATLTQYQLLATHVPTVWAIDQYRVCQEVLERSRDVVDDVSVSLRLWDTFGDHHKDRRFAYGRSDVVVLCFSIANPNSLHHVKTMWYPEIKHFCPRAPVILVGCQLDLRYADLEAVNRARRPLARPIKPNEILPPEKGREVAKELGIPYYETSVVAQFGIKDVFDNAIRAALISRRHLQFWKSHLRNVQRPLLQAPFLPPKPPPPIIVVPDPPSSSEECPAHLLEDPLCADVILVLQERVRIFAHKIYLSTSSSKFYDLFLMDLSEGELGGPSEPGGTHPEDHQGHSDQHHHHHHHHHGRDFLLRAASFDVCESVDEAGGSGPAGLRASTSDGILRGNGTGYLPGRGRVLSSWSRAFVSIQEEMAEDPLTYKSRLMVVVKMDSSIQPGPFRAVLKYLYTGELDENERDLMHIAHIAELLEVFDLRMMVANILNNEAFMNQEITKAFHVRRTNRVKECLAKGTFSDVTFILDDGTISAHKPLLISSCDWMAAMFGGPFVESSTREVVFPYTSKSCMRAVLEYLYTGMFTSSPDLDDMKLIILANRLCLPHLVALTEQYTVTGLMEATQMMVDIDGDVLVFLELAQFHCAYQLADWCLHHICTNYNNVCRKFPRDMKAMSPENQEYFEKHRWPPVWYLKEEDHYQRARKEREKEDYLHLKRQPKRRWLFWNSPSSPSSSAASSSSPSSSSAVV

Variants of: B1
Conditions: with cul3_human CUL3, Q13618

Effect of a mutation on the interaction, with no effect:
R511Q
R483H
A474G
